Measured values reported in patent publication US11260115B1, “Peptides and combination of peptides for use in immunotherapy against CLL and other cancers” (immatics biotechnologies GmbH, priority 2015, dated 2022).

Assays:
CD8+ T cells = assay: In vitro immunogenicity: T-cell priming with aAPCs loaded with peptide/MHC and anti-CD28, pMHC multimer readout; type: cell-based, human; conditions: HLA-A*02 restricted peptides, percentage of positive wells among evaluable
Procedure: FIGS. 3A-3F describe simulation graphs of various peptides of the present disclosure. […] CD8+ T cells were primed using artificial APCs coated with anti-CD28 mAb and HLA-A*02 in complex with SeqID No 1 peptide (FIG. 3C, left panel), SeqID No 5 peptide (FIG. 3D left panel), SeqID No 32 peptide (FIG. 3E, left panel) and SeqID No 220 peptide (FIG. 3F, left panel), respectively. After three cycles of stimulation, the detection of peptide-reactive cells was performed by 2D multimer staining with A*02/SeqID No 1 (FIG. 3C), A*02/SeqID No 5 (D), A*02/SeqID No 32 (FIG. 3E) or A*02/SeqID No 220 (FIG. 3F). Right panels (FIGS. 3C, 3D, 3E and 3F) show control staining of cells stimulated with irrelevant A*02/peptide complexes. Viable singlet cells were gated for CD8+ lymphocytes. Boolean gates helped excluding false-positive events detected with multimers specific for different peptides.
In order to obtain information regarding the immunogenicity of the TUMAPs of the present invention, the inventors performed investigations using an in vitro T-cell priming assay based on repeated stimulations of CD8+ T cells with artificial antigen presenting cells (aAPCs) loaded with peptide/MHC complexes and anti-CD28 antibody.
In order to perform in vitro stimulations by artificial antigen presenting cells loaded with peptide-MHC complex (pMHC) and anti-CD28 antibody, the inventors first isolated CD8+ T cells from fresh HLA-A*02 leukapheresis products via positive selection using CD8 microbeads (Miltenyi Biotec, Bergisch-Gladbach, Germany) of healthy donors obtained from the University clinics Mannheim, Germany, after informed consent.
PBMCs and isolated CD8+ lymphocytes were incubated in T-cell medium (TCM) until use consisting of RPMI-Glutamax (Invitrogen, Karlsruhe, Germany) supplemented with 10% heat inactivated human AB serum (PAN-Biotech, Aidenbach, Germany), 100 U/ml Penicillin/100 μg/ml Streptomycin (Cambrex, Cologne, Germany), 1 mM sodium pyruvate (CC Pro, Oberdorla, Germany), 20 μg/ml Gentamycin (Cambrex). 2.5 ng/ml IL-7 (PromoCell, Heidelberg, Germany) and 10 U/ml IL-2 (Novartis Pharma, Nümberg, Germany) were also added to the TCM at this step.
Generation of pMHC/anti-CD28 coated beads, T-cell stimulations and readout was performed in a highly defined in vitro system using four different pMHC molecules per stimulation condition and 8 different pMHC molecules per readout condition.
The purified co-stimulatory mouse IgG2a anti human CD28 Ab 9.3 (Jung et al., 1987) was chemically biotinylated using Sulfo-N-hydroxysuccinimidobiotin as recommended by the manufacturer (Perbio, Bonn, Germany). Beads used were 5.6 μm diameter streptavidin coated polystyrene particles (Bangs Laboratories, Illinois, USA).
800.000 beads/200 μl were coated in 96-well plates in the presence of 4×12.5 ng different biotin-pMHC, washed and 600 ng biotin anti-CD28 were added subsequently in a volume of 200 μl. Stimulations were initiated in 96-well plates by co-incubating 1×10^6 CD8+ T cells with 2×10^6 washed coated beads in 200 μl TCM supplemented with 5 ng/ml IL-12 (PromoCell) for 3 days at 37° C. Half of the medium was then exchanged by fresh TCM supplemented with 80 U/ml IL-2 and incubating was continued for 4 days at 37° C. This stimulation cycle was performed for a total of three times. For the pMHC multimer readout using 8 different pMHC molecules per condition, a two-dimensional combinatorial coding approach was used as previously described (Andersen et al., 2012) with minor modifications encompassing coupling to 5 different fluorochromes. Finally, multimeric analyses were performed by staining the cells with Live/dead near IR dye (Invitrogen, Karlsruhe, Germany), CD8-FITC antibody clone SK1 (BD, Heidelberg, Germany) and fluorescent pMHC multimers. For analysis, a BD LSRII SORP cytometer equipped with appropriate lasers and filters was used.

HLA-A*02:01 = HLA-A*02:01 (Homo sapiens, UniProt P04439, D140Y/D185E/D98H/E176V/E277Q/G131W/G231S/I119V/I121R/I166T/I218V/L300P/L318F/N151K/N90K/P208A/P217A/Q86G/Q94H/R138H/R169H/T345S); assay: MHC binding assay (UV-ligand exchange, β2m ELISA, peptide exchange yield); conditions: binding to HLA-A*02:01
Method in brief: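 Peptide-HLA-A*02:01 complexes formed by UV-mediated exchange of a photocleavable ligand; exchange yield measured by streptavidin-capture ELISA detecting β2m with HRP anti-β2m, TMB read at 450 nm. Refolded monomer standards 15-500 ng/ml; samples diluted 100-fold.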

Substance | Wells positive [%] (CD8+ T cells) | Peptide Exchange (MHC class I binding score, peptide exchange yield) (HLA-A*02:01)
2 (ALHRPDVYL; listed as Homo sapiens) [compound 2] | “+” (<20% = +) | “+++” (>50 = +++)
17 (ALTKTNLQL; listed as Homo sapiens) [compound 17] | “+” (<20% = +) | “+++” (>50 = +++)
26 (AVLLVLPLV; listed as Homo sapiens) [compound 26] | “+” (<20% = +) | “+++” (>50 = +++)
32 (FIDKFTPPV; listed as Homo sapiens) [compound 32] | “++++” (>=70% = ++++) | “++++” (>75% = ++++)
54 (FLYPFPLALF; listed as Homo sapiens) [compound 54] | “+” (<20% = +) | “+++” (>50 = +++)
57 (GLSEISLRL; listed as Homo sapiens) [compound 57] | “+” (<20% = +) | “++++” (>75% = ++++)
69 (GLHQREIFL; listed as Homo sapiens) [compound 69] | “+” (<20% = +) | “+++” (>50 = +++)
81 (WLVGQEFEL; listed as Homo sapiens) [compound 81] | “+” (<20% = +) | “+++” (>50 = +++)
86 (HLYPGAVTI; listed as Homo sapiens) [compound 86] | “+” (<20% = +) | “+++” (>50 = +++)
96 (ILIDKTSFV; listed as Homo sapiens) [compound 96] | “+” (<20% = +) | “+++” (>50 = +++)
101 (ILVVIEPLL; listed as Homo sapiens) [compound 101] | “+” (<20% = +) | “++++” (>75% = ++++)
102 (IQDRAVPSL; listed as Homo sapiens) [compound 102] | “+” (<20% = +) | “++” (>20% = ++)
112 (KTLDVDATYEI; listed as Homo sapiens) [compound 112] | “+” (<20% = +) | “+++” (>50 = +++)
114 (LIPEGPPQV; listed as Homo sapiens) [compound 114] | “+” (<20% = +) | “+++” (>50 = +++)
154 (SLLAELHVLTV; listed as Homo sapiens) [compound 154] | “+” (<20% = +) | “++++” (>75% = ++++)
192 (YIQEYLTLL; listed as Homo sapiens) [compound 192] | “+” (<20% = +) | “+++” (>50 = +++)
197 (YLQEVPILTL; listed as Homo sapiens) [compound 197] | “+” (<20% = +) | “++++” (>75% = ++++)

Substance | Wells positive [%] (CD8+ T cells) | Peptide Exchange (MHC class I binding score, peptide exchange yield) (HLA-A*02:01)
200 (YMFEEVPIVI; listed as Homo sapiens) [compound 200] | “+” (<20% = +) | “++++” (>75% = ++++)
201 (YQLELHGIEL; listed as Homo sapiens) [compound 201] | “+” (<20% = +) | “++++” (>75% = ++++)
240 (ILARDILEI; listed as Homo sapiens) [compound 240] | “+” (<20% = +) | “+++” (>50 = +++)
281 (NLLDDRGMTAL; listed as Homo sapiens) [compound 281] | “+” (<20% = +) | “+++” (>50 = +++)
307 (LLLTKPTEA; listed as Homo sapiens) [compound 307] | “+” (<20% = +) | “+++” (>50 = +++)
320 (TIAPVTVAV; listed as Homo sapiens) [compound 320] | “+” (<20% = +) | “++++” (>75% = ++++)
322 (SLASIHVPL; listed as Homo sapiens) [compound 322] | “+” (<20% = +) | “+++” (>50 = +++)
323 (SLDLFNCEV; listed as Homo sapiens) [compound 323] | “+” (<20% = +) | “++++” (>75% = ++++)
332 (VMIQHVENL; listed as Homo sapiens) [compound 332] | “+” (<20% = +) | “+++” (>50 = +++)
378 (YILGKFFAL; listed as Homo sapiens) [compound 378] | – | “+++” (>50 = +++)
379 (YLAELVTPIL; listed as Homo sapiens) [compound 379] | – | “+++” (>50 = +++)
380 (YLDRKLLTL; listed as Homo sapiens) [compound 380] | “++++” (>=70% = ++++) | “+++” (>50 = +++)
381 (YLLEENKIKL; listed as Homo sapiens) [compound 381] | – | “+++” (>50 = +++)
382 (YLLPLLQRL; listed as Homo sapiens) [compound 382] | – | “++++” (>75% = ++++)
383 (YLLREWVNL; listed as Homo sapiens) [compound 383] | – | “++++” (>75% = ++++)
384 (YMIGSEVGNYL; listed as Homo sapiens) [compound 384] | – | “++++” (>75% = ++++)
385 (YTIPLAIKL; listed as Homo sapiens) [compound 385] | – | “+++” (>50 = +++)
